This is an account of results in US20070065468A1.

The target in the test is mite allergen specific IgE of atopic subjects. Briefly: cell-based or functional assay.

B1: CHO-K1-expressed three-in-one chimeric mite allergen D1proenzD1LB5LD2 (protein)
chain: RPSSIKTFEEYKKAFNKSYATFEDEEAARKNFLESVKYVQSNGGAINHLSDLSLDEFKNRFLMSAEAFEHLKTQFDLNAETNACSINGNAPAEIDLRQMRTVTPIRMQGGCGSCWAFSGVAATESAYLAYRNQSLDLAEQELVDCASQHGCHGDTIPRGIEYIQHNGVVQESYYRYVAREQSCRRPNAQRFGISNYCQIYPPNVNKIREALAQTHSAIAVIIGIKDLDAFRHYDGRTIIQRDNGYQPNYHAVNIVGYSNAQGVDYWIVRNSWDTNWGDNGYGYFAANIDLMMIEEYPYVVILGGGSGGGSGGQEHKPKKDDFRNEFDHLLIEQANHAIEKGEHQLLYLQHQLDELNENKSKELQEKIIRELDVVCAMIEGAQGALERELKRTDLNILERFNYEEAQTLSKILLKDLKETEQKVKDIQTQGGGSGGGSGGDQVDVKDCANHEIKKVLVPGCHGSEPCIIHRGKPFQLEAVFEANQNTKTAKIEIKASIDGLEVDVPGIDPNACHYMKCPLVKGQQYDIKYTWNVPKIAPKSENVVVTVKVMGDDGVLACAIATHAKIRD
The molecule B1 registered a fold decrease in IgE-mediated histamine release by human basophils of 100 times; a histamine release in basophils (whole blood of two atopic individuals) of 104 fold; a skin prick test, positive skin reactivity in 15 atopic subjects of 26.6%.
